Test results reported in PMC7762956 (The Journal of Biological Chemistry, 2020).

B1: murine Ifit1 with a C-terminal His8 tag (natural protein)
chain: MGENADGDQVMENLLQLRCHFTWKLLFENNDIPDLEVRISEQVQFLDIKNPLGMHNLLAYVRHLKGQQDEALQSLKEAEALIQSEQLSKRSLATWGNCAWLHYHRGSLAEAQIYLDKVEKVCKEFSSPFRYRLECAEMDCEEGWALLKCGGGNYKQAMACFAKALKVEPENPEYNTGYAVVAYRQDLDDNFISLEPLRKAVRLNPEDPYLKVLLALKLQDLGEHVEAEAHIEEALSSTSCQSYVIRYAAKYFRRKHRVDKALHLLNRALQASPSSGYLHYQKGLCYKQQISQLRTSRNRQPRRQDNVQELAQQAIHEFQETLKLRPTFEMAYVCMAEVQAEIHQYEEAERNFQKALNNKTLVAHIEQDIHLRYGRFLQFHKQSEDKAITLYLKGLKVEEKSFAWRKLLTALEKVAERRVCQNVHLVESTSLLGLVYKLKGQEKNALFYYEKALRLTGEMNPAF
B2: murine Ifit1b with a C-terminal His8 tag (natural protein)
chain: MEQLLSPSNMSEESHKSHIHDSLDELRCHFTWELDIKDKHIHDLEIKISETEFRDPIYSIGMHNLLAYVRHLKGQQDEALQSLKEAEALIQSEQLSKRSLATWGNCAWLHYHRGSLAEAQVYLDKVEKVCKEFSSPFRYRLECAEMDCEEGWALRKCGSQNYTRAMACFERALKVEPENPEYNAGYADVAYHLDYYDGNSLQPLKKAVSVKPEDPYLKVLLALKLQDLRKTDEAEKHIKEATLTISSQNNIFGYVAKFYRRKGCVEEALGFLKKALETKPSSPYLHFQIGLCHKTQFFQMKKATSRENRKRADQSCHLAICHFKKTLELKPTYDRAYIDLAEVYAKNHQQKEAEDNFQEVLSMSNLGDYMQQEIHFRYGNFQQYYKKSEEAAITHYLKGLKIEVTSHYRDKLLKALEELAEGRKEDHVLESLSLLGLVCRLRGDTSEAMSCYEKALRLTGAVNPEF

Molecular target: the molecule itself
Experiment: SEC

| Protein | stoichiometry N |
| --- | --- |
| B1 | 2 |
| B2 | 2 |
